Several values for one entry are separate records, joined by “and”; a condition that tells them apart may be missing. Equal entries are not always repeated.
Columns and labels:
[1] = biological target: T1, non-tagged, non-linked native human IL-23p19/p40 coexpressed in SF9 cells (eBioscience CAT No. 34-8239) (human, UniProt P29460 23-328); assay: cell-based or functional assay
T1 sequence 1: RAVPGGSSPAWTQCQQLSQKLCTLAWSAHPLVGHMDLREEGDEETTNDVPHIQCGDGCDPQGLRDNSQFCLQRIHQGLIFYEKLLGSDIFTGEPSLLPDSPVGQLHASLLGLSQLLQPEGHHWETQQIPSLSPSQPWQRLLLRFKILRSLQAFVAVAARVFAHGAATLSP
T1 sequence 2: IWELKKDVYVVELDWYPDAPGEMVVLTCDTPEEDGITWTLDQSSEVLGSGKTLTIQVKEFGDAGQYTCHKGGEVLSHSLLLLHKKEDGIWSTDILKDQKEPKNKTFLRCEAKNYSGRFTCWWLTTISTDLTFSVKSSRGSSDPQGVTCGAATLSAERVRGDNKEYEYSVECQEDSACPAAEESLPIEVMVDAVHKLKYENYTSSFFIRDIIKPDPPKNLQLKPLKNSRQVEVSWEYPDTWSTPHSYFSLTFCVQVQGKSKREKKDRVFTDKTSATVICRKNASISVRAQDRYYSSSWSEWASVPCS

[2] = biological target: T2, "Elastikine" human IL-23 (single chain FLAG-tag:GLU-tag:human p40:elasti-linker:human p19, expressed in 293T … (human, UniProt P29460 23-328)); assay: cell-based or functional assay
[3] = biological target: T3, "Non-linked" human IL-23 (human p40 coexpressed in 293T cells with human p19:FLAG-tag peptide) (human, UniProt P29460 23-328); assay: cell-based or functional assay
T3 sequence 1: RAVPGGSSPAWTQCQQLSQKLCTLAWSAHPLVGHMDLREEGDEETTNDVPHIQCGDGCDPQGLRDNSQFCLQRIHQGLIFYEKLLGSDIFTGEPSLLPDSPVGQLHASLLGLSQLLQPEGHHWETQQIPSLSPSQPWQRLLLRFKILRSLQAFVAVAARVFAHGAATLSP
T3 sequence 2: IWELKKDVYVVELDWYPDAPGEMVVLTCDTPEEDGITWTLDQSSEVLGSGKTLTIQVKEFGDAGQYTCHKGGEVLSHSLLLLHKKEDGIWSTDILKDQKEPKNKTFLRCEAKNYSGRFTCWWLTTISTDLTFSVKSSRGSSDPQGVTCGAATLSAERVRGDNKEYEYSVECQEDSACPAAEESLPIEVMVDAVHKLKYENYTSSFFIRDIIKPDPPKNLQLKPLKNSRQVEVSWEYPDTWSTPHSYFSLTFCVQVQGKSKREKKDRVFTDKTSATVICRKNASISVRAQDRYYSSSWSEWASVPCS

[4] = biological target: T2, "Elastikine" human IL-23 (single chain …); assay: KinExA, solution equilibrium
Procedure: (§1) The equilibrium dissociation constant (Kd) for anti human IL-23 antibodies is determined using the KinExA 3000 instrument. Sapidyne Instruments Inc., Boise Id., USA KinExA uses the principle of the Kinetic Exclusion Assay method based on measuring the concentration of uncomplexed antibody in a mixture of antibody, antigen and antibody-antigen complex. The concentration of free antibody is measured by exposing the mixture to a solid-phase immobilized antigen for a very brief period of time. In practice, this is accomplished by flowing the solution phase antigen-antibody mixture past antigen-coated particles trapped in a flow cell. Data generated by the instrument are analyzed using custom software. Equilibrium constants are calculated using a mathematical theory based on the following assumptions:
(§2) 98 micron PMMA particles (Sapidyne, Cat No. 440198) are coated with biotinylated rhIL-23 according to Sapidyne “Protocol for coating PMMA particles with biotinylated ligands having short or nonexistent linker arms”. To make biotinylated rhIL-23, EZ-link TFP PEO-biotin (Pierce, Cat. No. 21219) is used according to manufacturer's recommendations (Pierce bulletin 0874). Experimental procedures are done according to the KinExA 3000 manual.
(§3) KinExA experiments are performed essentially as described at Example 3 of U.S. Patent Application Publication No. 2007/0048315.

[5] = biological target: T1, non-tagged, non-linked native human …; assay: KinExA, solution equilibrium
Procedure: as §1, §2, §3

[6] = biological target: T3, "Non-linked" human IL-23 (human p40 …); assay: KinExA, solution equilibrium
Procedure: as §1, §2, §3

B1: mouse anti-human IL-23p19 antibody 3D7 (antibody, V domains shown)
VH: QVQLQQSGPELVKPGASVKISCKASGYSFTSYYIHWVKQRPGQGLEWIGWIFPGSGNTKYNEKFKGKATLTADTSSTTAYMQLSSLTSEASAVYFCAREGLHYFGLYAMDYWGHGTSVTVSS
VL: DIQMTQTTSSLSASLGDRVTISCSASQGISNYLNWFQQKPDGTVKLLIYYTSSLHSGVPSRFSGSGSGTDYSLTISNLEPEDIATYYCQQYSKLPYTFGGGTKLEIKR
notes: also called m3D7
Question: How did the “IC50 (pM), blocking of Ba/F3 cell proliferation” value (shortened to “IC50 (pM), blocking”) [1] turn out when B1 was run?
Answer: Its value is 2 pM.

Question: What about the “IC50 (pM), blocking” value [2] of the same binder?
Answer: Its value is 3 pM.

Question: And the “IC50 (pM), blocking” value [3]?
Answer: The value was 37 pM.

Question: And the Kd [4]?
Answer: The Kd was 0.00084 nM.

B2: mouse anti-human IL-23p19 antibody 7G10 (antibody, V domains shown)
VH: EVQLQQSGPELVKPGASVKMSCKASGYTFTSNVMHWVKQKPGQGLEWIGYINPYNDGTKYNEKFKGKATLTSDKSSSTAYMELSSLTSEDSAVYYCARNWDVAYWGQGTLVTVSA
VL: DIVMTQSPATLSVTPGDRVSLSCRASQSISDYLHWYRQKSHESPRLLIKYASQSISGIPSRFSGSGSGSDFTLSINSVEPEDVGVYYCQNGHSFPFTFGSGTKLEIKR
Question: With B2 as the binder, how does the “IC50 (pM), blocking” value [2] read?
Answer: The value was 22 pM and 18 pM.

Question: What about the “IC50 (pM), blocking” value [3] of the same binder?
Answer: The value was 3000 pM.

B3: mouse anti-human IL-23p19 antibody 33B12 (antibody, V domains shown)
VH: QVQLQQSGAELARPGASVKLSCKASGYTFTSYSLKWVKQRTGQGLEWIGEIHPRSGNTHYNEKFKGKATLTADKSSSTAYMDLRSLTSEDSAVYFCATNWDLGYWGQGTTITVSS
VL: DIVLTQSPATLSVTPGDRVSLSCRASQSISDYLHWFQQRSHESPRLLIKYASQSISGIPSRFSGSGSGSDFTLSINSVEPEDVGVYYCQNGHSFPFTFGSGTKLEIKR
notes: also called m33B12
Question: What does the source list for B3?
Answer: IC50 (pM), blocking of Ba/F3 cell proliferation [1]: 57 pM; IC50 (pM), blocking of Ba/F3 cell proliferation [2]: 4 pM and 3 pM; IC50 (pM), blocking of Ba/F3 cell proliferation [3]: 193 pM; Kd [4]: 0.0068 nM

B4: mouse anti-human IL-23p19 antibody 6H12 (antibody, V domains shown)
VH: EVHLQQSGPELVKPGASVKMSCKASGYTFNRYLIHWVKQKPGQGLEWIGYINPNNDGTNYNEKFKGKATLTSDKSSSTAYMELSSLTSEDSAVYYCAANWDQAYWGQGTLVTVSA
VL: DIVMTQSPATLSVTPGDRVSLSCRASQSISDYLHWYQQKSHESPRLLIKYTSQSISGIPSRFSGSGSGSDFTLSINSVEPEDVGVYYCQNGHSFPFTFGSGTKLEIKR
notes: also called m6H12
Question: B4 was tested. Which “IC50 (pM), blocking” value [1] did it give?
Answer: The value was 1300 pM and 500 pM.

Question: What about the “IC50 (pM), blocking” value [2] of the same binder?
Answer: The value was 11 pM and 9 pM.

Question: What about the “IC50 (pM), blocking” value [3] of the same binder?
Answer: The value was 1500 pM.

Question: What about the Kd [5] of the same binder?
Answer: The Kd was over 1 nM.

Question: And the Kd [4]?
Answer: Its Kd is 0.054 nM and 0.048 nM.

Question: And the Kd [6]?
Answer: The Kd was over 1.2 nM.

B5: mouse anti-human IL-23p19 antibody 13B5 (antibody, V domains shown)
VH: EVQLQQSGPELVKPGASVKMSCKASGYTFTRYLMHWVKQKPGQGLEWIGYINPYNDGTNYNEKFKGKATLTSDKSSSTAYMELSSLTSEDSAVYYCARNWDVGGYWGQGTTLTVSS
VL: DIVMTQSPATLSVTPGDRVSLSCRASQSISDYLHWYQQKSHESPRLLIKYASQSISGIPSRFSGSGSGSDFTLSINSVEPEDVGVYYCQNGHSFPFTFGSGTKLEIKR
notes: also called m13B5
Question: What does the source list for B5?
Answer: IC50 (pM), blocking of Ba/F3 cell proliferation [1]: 31 pM; IC50 (pM), blocking of Ba/F3 cell proliferation [2]: 7 pM and 5 pM; IC50 (pM), blocking of Ba/F3 cell proliferation [3]: 113 pM; Kd [5]: 0.055 nM; Kd [4]: 0.022 nM
